In patent US20260226143A1 (OTHAIR PROTHENA, published 2026):

Tests used:
[1] = molecular target: T1, aggregated Aβ42 (heterogeneous Aβ 42 aggregate mixture) (human); assay: competition ELISA, plate coated with aggregated Aβ42; competitor biotinylated hBP
T1 construct: Aβ 42 vortexed in water and kept on a nutator for 48 h at room temperature, then coated on plates; also called Aβ aggregates; heterogeneous aggregated Aβ42 species
Description: One mg of Aβ 42 was added to 1 ml of diH2O and was vigorously vortexed and placed on a nutator for 48 hours at room temperature. Plates were coated with 0.5 mg/ml of the heterogeneous Aβ 42 aggregate mixture and blocked, e.g., with 1% BSA/PBS. […] 100 ul of GE Streptavidin HRP diluted 1/10,000 was then added and incubated for 30 minutes. Plates were washed six times with TTBS. Thermo Fisher o-phenylenediamine dihydrochloride (OPD) substrate was prepared fresh per manufacturers direction, and 100 μl per well was added. The reaction was incubated for 15 minutes and the reaction stopped with 50 ul 2N H₂SO₄. […] For FIG. 20A and FIG. 20B, curves and resulting IC₅₀ estimations represent nonlinear three-parameter least squares fit of data. Individual points are the average of triplicate samples (coefficient of variation <20%).

[2] = molecular target: T2, recombinant Aβ1-42 fibrils (human); assay: direct ELISA on plate-coated Aβ fibrils, antibody titrated
T2 construct: Fibrils made from HFIP-treated Aβ1-42 (DMSO, 10 mM HCl, 37 C, 24 h; pellet resuspended and sonicated); also called fibril Aβ42; fibril Aβ
T2 sequence (peptide, as listed by the source): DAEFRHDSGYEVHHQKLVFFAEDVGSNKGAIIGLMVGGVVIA
Description: (§1) Plates were blocked 1% BSA/PBS for 1 hour. […] Plates were washed four times with TBS/Tween 20 and 100 μl of goat anti Human IgG HRP (Jackson ImmunnoResearch Laboratories, Inc, West Grove, PA or Invitrogen, Carlsbad, CA) at 1/5000 dilution was added to each well and incubated 1 hour at room temperature. Plates were wash six times in TBS/Tween 20, and Thermo Fisher o-phenylenediamine dihydrochloride (OPD) tablets and ThermoFisher substrate buffer were prepared per manufacturer's instructions. 100 μl of substrate was added and incubated 15 min. Reaction was stopped with 50 μl H₂SO₄. Plates were read at 490 nm on a molecular devices spectromax. FIG. 9A, and FIG. 21. For FIG. 21, curves and resulting EC₅₀ estimations represent nonlinear three-parameter least squares fit of the data (data shown in Table 7).

soluble Aβ oligomers = soluble Aβ oligomers (human, partly biotinylated (unlabeled, biotinylated or 9:1 unlabeled:biotinylated preparations)); assay: cell-based or functional assay
Sequence of soluble Aβ oligomers (human, partly biotinylated (unlabeled, biotinylated or 9:1 unlabeled:biotinylated preparations)) (peptide, as listed by the source): as above

[3] = molecular target: T2, recombinant Aβ1-42 fibrils; assay: direct ELISA on plate-coated Aβ fibrils; the low end falls to h2831 by the EC50 values of Table 7
Description: as §1

[4] = molecular target: T2, recombinant Aβ1-42 fibrils; assay: direct ELISA, fibril Abeta plate coat titrated, antibody held constant at 2 ug/ml; unit from the axis 'log ng/ml Abeta' [right panel]
Description: Plates were blocked 1% BSA/PBS 1 hour. Antibodies at 2 μg/ml in 0.1% BSA/PBS 0.1% Tween 20 were added in duplicate to the appropriate wells and incubated for 2 hrs at room temperature. Plates were washed 4× with TBS/Tween 20 and then 100 μl of Jackson Goat anti Human IgG HRP 1/5000 dilution was added to each well and incubated 1 hour at room temperature. Plates were wash six times in TBS/Tween 20, and Thermo Fisher o-phenylenediamine dihydrochloride (OPD) tablets and Thermofisher substrate buffer were prepared per manufacturer's instructions. 100 μl of substrate was and incubated 15 min. Reaction was stopped with 50 μl H₂SO₄. Plates were read at 490 nm on a molecular devices spectromax. FIG. 9B, right panel.

[5] = molecular target: T2, recombinant Aβ1-42 fibrils; assay: direct ELISA on plate-coated Aβ fibrils; the high end falls to h2726 by the EC50 values of Table 7
Description: as §1

T1 sequence (peptide, as listed by the source): as above

Row | Binder | IC50 [1] [µg/mL] | EC50 [2] [µg/mL] | IC50 of the reduction of Abeta spots per neuron (% Abeta control, normalized to untreated Abeta) (soluble Aβ oligomers) [µg/mL] | fold lower estimated EC50 than aducanumab [3] [fold] | IC50 (as headed in the table; half-maximal concentration of the Abeta fibril coat) [4] [µg/mL] | Total Area (area under the curve of % Abeta control against mAb concentration) (soluble Aβ oligomers) | fold lower estimated EC50 than aducanumab [5] [fold]
1 | h2731 (antibody, human IgG1, kappa, V domains shown, Heavy chain with or without the C-terminal lysine) VH: EVQLLESGGGLVQPGGSLRLSCAASGFTFSNYGMSWVRQAPGKGLEWVASIRSGSGRTYYSDNVKGRFTISRDNSKNTLYLQMNSLRAEDTAVYYCVRYDHYSGSSDYWGQGTLVTVSS VL: DVVMTQSPLSLPVTLGEPASISCKSSQSLLDYDGKTYLNWLLQKPGQSPQRLIYRVTNRDTGVPDRFSGSGSGTDFTLKISRVEAEDVGVYYCWQGTHFPRSFGQGTKVEIKR | 5.02 | 0.0367 | 0.47 | – | – | – | –
2 | h2831 (antibody, V domains shown, Humanized IgG; only variable domains tied to the name; also called PB-0575) VH: EVQLLESGGGLVQPGGSLRLSCAASGFTFSNFGMSWVRQAPGKGLEWVASVRSGSGRTYYSDNVKGRFTISRDNSKNTLYLQMNSLRAEDTAVYYCVRYDHYSGTSDYWGQGTLVTVSS VL: DVVMTQSPLSLPVTLGEPASISCKSSQSLLDYDGKTYLNWLLQKPGQSPQRLIYRVTNRDTGVPDRFSGSGSGTDFTLKISRVEAEDVGVYYCWQGTHFPRSFGQGTKVEIK | 9.91 | 0.0489 | 0.924 | 15 to 20 | 0.412 | 6500 | –
3 | h2726 (antibody, V domains shown, Humanized IgG; also called PB-0573) VH: EVQLLESGGGLVQPGGSLRLSCAASGFTFSNYGMSWVRQAPGKGLEWVASIRSGSGRTYYSDNVKGRFTISRDNSKNTLYLQMNSLRAEDTAVYYCVRYDHYSGSSDYWGQGTLVTVSS VL: DVVMTQSPLSLPVTPGEPASISCKSSQSLLDYDGKTYLNWLLQKPGQSPQRLIYKVSNRDSGVPDRFSGSGSGTDFTLKISRVEAEDVGVYYCWQGTHFPRTFGQGTKVEIK | 9.05 | 0.0359 | 1.67 | – | 0.387 | 9070 | 15 to 20
4 | h2931 (antibody, V domains shown, Humanized IgG; only variable domains tied to the name; also called PB-0576) VH: EVQLLESGGGLVQPGGSLRLSCAASGFTFSNFGMSWVRQAPGKGLEWVASVRSGSGRTYYSDNVKGRFTISRDNSKNTLYLQMNSLRAEDTAVYYCVRYDHYTGTSDYWGQGTLVTVSS VL: DVVMTQSPLSLPVTLGEPASISCKSSQSLLDYDGKTYLNWLLQKPGQSPQRLIYRVTNRDTGVPDRFSGSGSGTDFTLKISRVEAEDVGVYYCWQGTHFPRSFGQGTKVEIK | 6.9 | 0.0449 | 0.627 | – | 0.335 | 8480 | –
